From PMC10244618 come the findings set out here.

B1: NF2 (merlin) isoform 7, human, full length (507 aa, lacks exons 2-3 = isoform-1 residues 39-121; exon-16 C-terminus), P35240-4 (parent)
chain: MAGAIASRMSFSSLKRKQPKTFTVRIVTMDAEMEFNCEVKKQILDEKIYCPPEASVLLASYAVQAKYGDYDPSVHKRGFLAQEELLPKRVINLYQMTPEMWEERITAWYAEHRGRARDEAEMEYLKIAQDLEMYGVNYFAIRNKKGTELLLGVDALGLHIYDPENRLTPKISFPWNEIRNISYSDKEFTIKPLDKKIDVFKFNSSKLRVNKLILQLCIGNHDLFMRRRKADSLEVQQMKAQAREEKARKQMERQRLAREKQMREEAERTRDELERRLLQMKEEATMANEALMRSEETADLLAEKAQITEEEAKLLAQKAAEAEQEMQRIKATAIRTEEEKRLMEQKVLEAEVLALKMAEESERRAKEADQLKQDLQEAREAERRAKQKLLEIATKPTYPPMNPIPAPLPPDIPSFNLIGDSLSFDFKDTDMKRLSMEIEKEKVEYMEKSKHLQEQLNELKTEIEALKLKERETALDILHNENSDRGGSSKHNTIKKPQAQGRRPICI

Where “and” joins values, the source holds several entries; their conditions need not be identical. Identical values can stand only once.

The variants in the first assay derive from B1. Kind of assay: reverse yeast two-hybrid deep mutational scan (rY2H-seq): NF2 isoform 7 mutant library as bait mated with wild-type prey strains; selection on medium lacking adenine for non-interacting pairs; NextSeq paired-end sequencing; enrichment vs …. Conditions: with KDM1A (lysine-specific histone demethylase 1A; the table's label AOF2 is a gene synonym of KDM1A), O60341; yeast diploids after mating (RBait_S3 x RPrey_S3), 30 °C, selection for reporter genes on NB agar; human ABL2 co-expressed as the kinase-dead K35M mutant …; HIGHER = WEAKER BINDING (the opposite of display enrichments): higher = stronger loss of interaction: reverse Y2H selects yeast in which bait and prey do NOT interact (growth without adenine), so a …; hits-only table; scale: rY2H score; numbering: uniprot, sequence starts at 1. Background: In a reporter assay the amount or activity of a reporter protein is the signal.
D271K: the enrichment turned out to be 5.07.

Take K340L: the enrichment was 3.29.

For L158I, the enrichment is 2.37.

For the variant I171D, the enrichment was found to be 5.35.

For the variant M122A, the enrichment was 3.3.

As for Q250D, the enrichment worked out at 1.46.

On to Q250L, for which the enrichment amounted to 2.08.

Turning to D428K, the enrichment came out at 2.24.

In the case of E344V, the enrichment is 1.58.

Turning to D369K, the enrichment turned out to be 2.15.

Take Q279E: the enrichment amounted to 4.82.

Consider L348K, for which the enrichment is 3.09.

Turning to E337L, the enrichment was determined as 1.6.

In the case of D71K, the enrichment was determined as 5.71.

For R25E, the enrichment is 3.64 and 8.74.

Take T168P: the enrichment is 1.77.

On to T168D, for which the enrichment is 2.37.

As for S488R, the enrichment came out at 1.65.

Consider A406Q, for which the enrichment is 1.87.

On to D411C, for which the enrichment stood at 2.42.

In the case of A378T, the enrichment turned out to be 1.71.

In the case of M357D, the enrichment amounted to 7.23.

For the variant S414E, the enrichment came to 1.73.

As to S414L, the enrichment is 3.17.

As to L353A, the enrichment came to 2.32.

With E123D, the enrichment stood at 1.75.

With E123L, the enrichment is 1.42.

L156W: the enrichment was 4.82 and 4.33.

As for S12L, the enrichment stood at 5.88.

Consider Q370A, for which the enrichment was 1.45 and 2.01.

Regarding A365L, the enrichment is 2.1.

Consider E325A, for which the enrichment stood at 3.73.

Regarding E325T, the enrichment is 4.73.

As for A385E, the enrichment was 2.26 and 2.39.

On to R328P, for which the enrichment is 1.53.

G78K: the enrichment was found to be 1.76.

Turning to H112A, the enrichment turned out to be 2.37.

The same assay, now with this note: with EMILIN1 (elastin microfibril interfacer 1), Q9Y6C2; yeast diploids after mating (RBait_S3 x RPrey_S3), 30 °C, selection for reporter genes on NB agar; human tyrosine kinase ABL2 co-expressed as the active kinase …; HIGHER = WEAKER BINDING (the opposite of display enrichments): higher = stronger loss of interaction: reverse Y2H selects yeast in which bait and prey do NOT interact (growth without adenine), so a …; hits-only table; scale: rY2H score; numbering: uniprot, sequence starts at 1.
Regarding K340L, the enrichment is 1.95 and 2.03.

Take A128V: the enrichment is 1.56.

With D428K, the enrichment is 4.1.

On to I141L, for which the enrichment was 7.65.

Turning to D369K, the enrichment was 2.69 and 1.81.

As to Q279E, the enrichment was found to be 2.35.

On to D476V, for which the enrichment was 5.43.

As to S73L, the enrichment is 1.58 and 3.38.

Consider S73K, for which the enrichment amounted to 2.

Consider L348K, for which the enrichment turned out to be 2.78.

For the variant S294K, the enrichment is 4.59 and 3.72.

K395Q: the enrichment was determined as 1.8.

As to P399K, the enrichment is 1.52.

Consider P399R, for which the enrichment is 2.33.

E337A: the enrichment was determined as 1.89.

As to A266K, the enrichment came to 9.16.

Turning to E367K, the enrichment is 1.96.

For the variant G146A, the enrichment was 3.91 and 4.27.

Turning to V74S, the enrichment came out at 6.93.

Consider T168A, for which the enrichment was 2.55.

Take S488R: the enrichment is 1.65.

As for A406K, the enrichment amounted to 2.13.

With A406Q, the enrichment is 2.56.

Consider T106L, for which the enrichment worked out at 4.33.

Consider T285L, for which the enrichment was 2.39 and 4.

Consider E259K, for which the enrichment is 3.41.

P174R: the enrichment stood at 4.14.

On to A378T, for which the enrichment was determined as 2.24.

As for R258V, the enrichment came to 2.52.

F79A: the enrichment was 4.71.

As for E123D, the enrichment came out at 1.52.

As to L156W, the enrichment is 1.61 and 3.25.

On to T429K, for which the enrichment was determined as 5.25.

Turning to E444A, the enrichment is 10.3 and 7.31.

As to Q261Y, the enrichment was 2.07.

With I404K, the enrichment was determined as 1.59.

As to E325A, the enrichment was 2.68.

On to E325T, for which the enrichment was determined as 6.21.

Consider E148K, for which the enrichment is 2.78 and 2.12.

With T461I, the enrichment was 1.49.

Regarding R328T, the enrichment was determined as 2.61.

Still in this assay, the particulars now being: with PIK3R3 (phosphatidylinositol 3-kinase regulatory subunit gamma), Q92569; yeast diploids after mating (RBait_S3 x RPrey_S3), 30 °C, selection for reporter genes on NB agar; human tyrosine kinase ABL2 co-expressed as the active kinase …; HIGHER = WEAKER BINDING (the opposite of display enrichments): higher = stronger loss of interaction: reverse Y2H selects yeast in which bait and prey do NOT interact (growth without adenine), so a …; hits-only table; scale: rY2H score; numbering: uniprot, sequence starts at 1.
As for K340L, the enrichment is 1.55.

In the case of L158I, the enrichment is 1.48 and 2.46.

I171D: the enrichment is 3.5 and 7.01.

For the variant D369K, the enrichment is 4.98.

With S73L, the enrichment stood at 5.98.

On to S73K, for which the enrichment was 3.5 and 2.86.

Take T168A: the enrichment amounted to 6.22.

Regarding T285L, the enrichment came out at 6.05.

As for S414L, the enrichment was 3.79.

For R258V, the enrichment amounted to 1.6.

In the case of L156W, the enrichment is 3.91 and 3.42.

A385E: the enrichment is 4.1.

Staying with this assay, now noted: with NF2 C-terminal domain (wild type; homomeric NF2-NF2 interaction), P35240; yeast diploids after mating (RBait_S3 x RPrey_S3), 30 °C, selection for reporter genes on NB agar; human ABL2 co-expressed as the kinase-dead K35M mutant …; HIGHER = WEAKER BINDING (the opposite of display enrichments): higher = stronger loss of interaction: reverse Y2H selects yeast in which bait and prey do NOT interact (growth without adenine), so a …; hits-only table; partner unresolved; scale: rY2H score; numbering: uniprot, sequence starts at 1.
Take M122A: the enrichment stood at 2.37.

For A128V, the enrichment worked out at 1.47.

With D369K, the enrichment amounted to 2.61.

For S73L, the enrichment amounted to 3.01.

Turning to S294K, the enrichment came to 4.08.

Turning to S488R, the enrichment is 1.58.

On to P174R, for which the enrichment amounted to 4.82.

As for M357D, the enrichment was determined as 2.94.

With R258V, the enrichment came out at 1.38.

As to L156W, the enrichment is 5.5 and 4.13.

Consider A365L, for which the enrichment came out at 2.32.

As for A385E, the enrichment is 2.06.

The same assay, now with this note: with KDM1A (lysine-specific histone demethylase 1A; the table's label AOF2 is a gene synonym of KDM1A), O60341; yeast diploids after mating (RBait_S3 x RPrey_S3), 30 °C, selection for reporter genes on NB agar; human tyrosine kinase ABL2 co-expressed as the active kinase …; HIGHER = WEAKER BINDING (the opposite of display enrichments): higher = stronger loss of interaction: reverse Y2H selects yeast in which bait and prey do NOT interact (growth without adenine), so a …; hits-only table; scale: rY2H score; numbering: uniprot, sequence starts at 1.
With Q250D, the enrichment turned out to be 1.65.

With A266K, the enrichment stood at 2.16.

Take L156W: the enrichment turned out to be 5.87.

As for T429K, the enrichment was found to be 11.2.

E148K: the enrichment came to 1.49.

Regarding A385E, the enrichment is 2.59 and 2.4.

For G78K, the enrichment was 5.27.
